Results taken from US20190233519A1 (NANJING LEGEND BIOTECH, published 2019).

B1: BCP-35 (Keytruda-Fab VH-CH1-hIgG1 hinge-A34311-CH1-IgG4 Fc, Keytruda-Fab VL-CL-hIgG1 hinge-A34311-CL) (bispecific antibody)
heavy: not shown
light: EIVLTQSPATLSLSPGERATLSCRASKGVSTSGYSYLHWYQQKPGQAPRLLIYLASYLESGVPARFSGSGSGTDFTLTISSLEPEDFAVYYCQHSRDLPLTFGGGTKVEIKRTVAAPSVFIFPPSDEQLKSGTASVVCLLNNFYPREAKVQWKVDNALQSGNSQESVTEQDSKDSTYSLSSTLTLSKADYEKHKVYACEVTHQGLSSPVTKSFNRGECEPKSCDKTHTCPPCPQVKLEESGGGLVLPGESLRLSCEASGRTITTITMGWFRQAPGKERQFVASHSWTDNNPYYADSVKGRFIISRDNAGNRVYLQMHSLEPEDTAVYYCAATARRSFVGRQWYTEARQYDYWGQGTQVTVSSRTVAAPSVFIFPPSDEQLKSGTASVVCLLNNFYPREAKVQWKVDNALQSGNSQESVTEQDSKDSTYSLSSTLTLSKADYEKHKVYACEVTHQGLSSPVTKSFNRGEC
B2: BCP-36 (Keytruda-scFv-hIgG1 hinge-A34311-CH1-IgG1 Fc, A34311-CL as light chain fusion polypeptide) (bispecific antibody)
heavy: not shown
light: QVKLEESGGGLVLPGESLRLSCEASGRTITTITMGWFRQAPGKERQFVASHSWTDNNPYYADSVKGRFIISRDNAGNRVYLQMHSLEPEDTAVYYCAATARRSFVGRQWYTEARQYDYWGQGTQVTVSSRTVAAPSVFIFPPSDEQLKSGTASVVCLLNNFYPREAKVQWKVDNALQSGNSQESVTEQDSKDSTYSLSSTLTLSKADYEKHKVYACEVTHQGLSSPVTKSFNRGEC
B3: BCP-17 (Keytruda-hIgG1 hinge-A34311) (bispecific antibody)
heavy: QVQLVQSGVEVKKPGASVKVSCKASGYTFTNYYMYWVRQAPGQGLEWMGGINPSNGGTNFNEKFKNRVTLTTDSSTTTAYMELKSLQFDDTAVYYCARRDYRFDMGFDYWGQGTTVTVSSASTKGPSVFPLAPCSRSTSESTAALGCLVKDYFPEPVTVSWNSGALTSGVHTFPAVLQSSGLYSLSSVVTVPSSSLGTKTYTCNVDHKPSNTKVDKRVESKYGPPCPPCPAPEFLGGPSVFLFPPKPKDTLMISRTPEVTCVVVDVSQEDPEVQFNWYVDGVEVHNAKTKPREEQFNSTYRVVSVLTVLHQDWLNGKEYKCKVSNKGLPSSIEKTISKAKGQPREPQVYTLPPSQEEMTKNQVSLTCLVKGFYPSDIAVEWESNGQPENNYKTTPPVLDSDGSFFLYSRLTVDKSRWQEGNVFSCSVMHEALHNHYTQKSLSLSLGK
light: EIVLTQSPATLSLSPGERATLSCRASKGVSTSGYSYLHWYQQKPGQAPRLLIYLASYLESGVPARFSGSGSGTDFTLTISSLEPEDFAVYYCQHSRDLPLTFGGGTKVEIKRTVAAPSVFIFPPSDEQLKSGTASVVCLLNNFYPREAKVQWKVDNALQSGNSQESVTEQDSKDSTYSLSSTLTLSKADYEKHKVYACEVTHQGLSSPVTKSFNRGECEPKSCDKTHTCPPCPQVKLEESGGGLVLPGESLRLSCEASGRTITTITMGWFRQAPGKERQFVASHSWTDNNPYYADSVKGRFIISRDNAGNRVYLQMHSLEPEDTAVYYCAATARRSFVGRQWYTEARQYDYWGQGTQVTVSS
B4: BCP-2 (BCP-K311) (Keytruda-9GS-A34311) (bispecific antibody, human IgG4 S228P, kappa)
heavy: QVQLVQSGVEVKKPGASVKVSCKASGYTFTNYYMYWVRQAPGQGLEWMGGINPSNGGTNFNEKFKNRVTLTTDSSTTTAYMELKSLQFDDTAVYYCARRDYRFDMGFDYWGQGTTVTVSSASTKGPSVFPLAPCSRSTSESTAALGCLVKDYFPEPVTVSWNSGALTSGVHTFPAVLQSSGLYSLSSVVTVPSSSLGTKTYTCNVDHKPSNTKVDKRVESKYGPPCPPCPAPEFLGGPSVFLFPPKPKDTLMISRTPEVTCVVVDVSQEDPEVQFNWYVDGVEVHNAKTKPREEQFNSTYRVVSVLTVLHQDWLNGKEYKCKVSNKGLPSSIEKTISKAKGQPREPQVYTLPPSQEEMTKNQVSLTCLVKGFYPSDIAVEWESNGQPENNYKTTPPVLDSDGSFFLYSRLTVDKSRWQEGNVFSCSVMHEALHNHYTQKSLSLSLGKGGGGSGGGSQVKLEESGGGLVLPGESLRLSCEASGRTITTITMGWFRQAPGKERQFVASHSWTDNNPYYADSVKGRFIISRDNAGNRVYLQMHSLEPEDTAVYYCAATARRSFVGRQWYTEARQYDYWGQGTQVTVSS
light: EIVLTQSPATLSLSPGERATLSCRASKGVSTSGYSYLHWYQQKPGQAPRLLIYLASYLESGVPARFSGSGSGTDFTLTISSLEPEDFAVYYCQHSRDLPLTFGGGTKVEIKRTVAAPSVFIFPPSDEQLKSGTASVVCLLNNFYPREAKVQWKVDNALQSGNSQESVTEQDSKDSTYSLSSTLTLSKADYEKHKVYACEVTHQGLSSPVTKSFNRGEC
B5: BCP-33 (Keytruda-Fab VH-CH1-hIgG1 hinge-A34311-IgG1 Fc) (bispecific antibody)
heavy: not shown
light: B4 light
B6: BCP-32 (A34311-9GS linker-A34311-9GS linker-Keytruda) (bispecific antibody, human IgG4 S228P, kappa)
heavy: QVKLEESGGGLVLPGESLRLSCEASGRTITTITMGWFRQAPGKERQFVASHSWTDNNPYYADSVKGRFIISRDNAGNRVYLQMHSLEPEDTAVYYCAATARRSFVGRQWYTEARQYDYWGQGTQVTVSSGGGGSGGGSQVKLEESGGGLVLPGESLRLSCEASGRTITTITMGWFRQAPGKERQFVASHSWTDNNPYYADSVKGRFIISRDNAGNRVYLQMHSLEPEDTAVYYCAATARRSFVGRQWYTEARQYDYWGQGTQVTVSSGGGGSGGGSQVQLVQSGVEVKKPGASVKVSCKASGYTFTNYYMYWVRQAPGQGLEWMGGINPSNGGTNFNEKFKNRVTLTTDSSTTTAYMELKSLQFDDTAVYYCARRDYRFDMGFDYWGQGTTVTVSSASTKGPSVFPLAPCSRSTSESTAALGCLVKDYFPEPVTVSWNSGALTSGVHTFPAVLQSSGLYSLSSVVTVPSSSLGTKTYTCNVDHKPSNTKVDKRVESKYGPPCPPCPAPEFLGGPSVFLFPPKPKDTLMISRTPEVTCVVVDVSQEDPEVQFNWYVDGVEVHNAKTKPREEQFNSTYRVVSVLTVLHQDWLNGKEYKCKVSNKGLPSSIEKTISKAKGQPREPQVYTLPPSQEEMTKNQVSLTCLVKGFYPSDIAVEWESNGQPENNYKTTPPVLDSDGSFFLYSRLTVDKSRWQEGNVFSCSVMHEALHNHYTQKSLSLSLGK
light: B4 light
B7: BCP-16 (A34311-hIgG1 hinge-Keytruda) (bispecific antibody)
heavy: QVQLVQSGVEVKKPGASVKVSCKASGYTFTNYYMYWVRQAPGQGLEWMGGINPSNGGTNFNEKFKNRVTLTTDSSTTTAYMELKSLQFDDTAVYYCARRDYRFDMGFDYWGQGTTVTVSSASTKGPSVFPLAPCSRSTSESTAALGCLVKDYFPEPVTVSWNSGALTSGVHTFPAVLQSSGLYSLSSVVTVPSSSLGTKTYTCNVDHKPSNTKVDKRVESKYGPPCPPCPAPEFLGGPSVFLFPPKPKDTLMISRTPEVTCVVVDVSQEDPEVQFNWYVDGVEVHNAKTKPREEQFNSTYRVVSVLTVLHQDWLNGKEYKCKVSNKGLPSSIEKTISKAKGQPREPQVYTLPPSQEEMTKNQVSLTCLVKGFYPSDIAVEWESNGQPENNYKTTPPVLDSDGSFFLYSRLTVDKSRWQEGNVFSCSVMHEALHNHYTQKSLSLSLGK
light: QVKLEESGGGLVLPGESLRLSCEASGRTITTITMGWFRQAPGKERQFVASHSWTDNNPYYADSVKGRFIISRDNAGNRVYLQMHSLEPEDTAVYYCAATARRSFVGRQWYTEARQYDYWGQGTQVTVSSEPKSCDKTHTCPPCPEIVLTQSPATLSLSPGERATLSCRASKGVSTSGYSYLHWYQQKPGQAPRLLIYLASYLESGVPARFSGSGSGTDFTLTISSLEPEDFAVYYCQHSRDLPLTFGGGTKVEIKRTVAAPSVFIFPPSDEQLKSGTASVVCLLNNFYPREAKVQWKVDNALQSGNSQESVTEQDSKDSTYSLSSTLTLSKADYEKHKVYACEVTHQGLSSPVTKSFNRGEC
B8: BCP-31 (A34311-9GS linker-Keytruda) (bispecific antibody, human IgG4 S228P, kappa)
heavy: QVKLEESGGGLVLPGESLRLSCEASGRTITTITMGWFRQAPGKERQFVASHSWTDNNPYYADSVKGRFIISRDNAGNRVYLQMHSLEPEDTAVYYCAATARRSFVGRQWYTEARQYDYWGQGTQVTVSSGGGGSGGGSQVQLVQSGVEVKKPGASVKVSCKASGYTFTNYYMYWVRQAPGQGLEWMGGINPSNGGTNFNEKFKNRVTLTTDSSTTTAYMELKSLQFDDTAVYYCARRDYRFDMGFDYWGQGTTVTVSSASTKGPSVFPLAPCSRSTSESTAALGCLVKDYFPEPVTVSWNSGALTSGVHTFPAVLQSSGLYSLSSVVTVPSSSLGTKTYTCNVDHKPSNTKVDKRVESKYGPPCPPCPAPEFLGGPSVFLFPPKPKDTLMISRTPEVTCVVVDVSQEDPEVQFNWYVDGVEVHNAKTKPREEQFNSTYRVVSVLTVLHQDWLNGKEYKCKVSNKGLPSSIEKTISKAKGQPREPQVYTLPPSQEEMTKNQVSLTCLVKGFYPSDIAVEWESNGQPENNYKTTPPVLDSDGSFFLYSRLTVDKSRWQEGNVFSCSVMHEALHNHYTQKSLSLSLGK
light: QVKLEESGGGLVLPGESLRLSCEASGRTITTITMGWFRQAPGKERQFVASHSWTDNNPYYADSVKGRFIISRDNAGNRVYLQMHSLEPEDTAVYYCAATARRSFVGRQWYTEARQYDYWGQGTQVTVSSGGGGSGGGSEIVLTQSPATLSLSPGERATLSCRASKGVSTSGYSYLHWYQQKPGQAPRLLIYLASYLESGVPARFSGSGSGTDFTLTISSLEPEDFAVYYCQHSRDLPLTFGGGTKVEIKRTVAAPSVFIFPPSDEQLKSGTASVVCLLNNFYPREAKVQWKVDNALQSGNSQESVTEQDSKDSTYSLSSTLTLSKADYEKHKVYACEVTHQGLSSPVTKSFNRGEC
B9: BCP-75 (AS07189TKDVH11-mutated hIgG1 hinge-Keytruda) (bispecific antibody)
heavy: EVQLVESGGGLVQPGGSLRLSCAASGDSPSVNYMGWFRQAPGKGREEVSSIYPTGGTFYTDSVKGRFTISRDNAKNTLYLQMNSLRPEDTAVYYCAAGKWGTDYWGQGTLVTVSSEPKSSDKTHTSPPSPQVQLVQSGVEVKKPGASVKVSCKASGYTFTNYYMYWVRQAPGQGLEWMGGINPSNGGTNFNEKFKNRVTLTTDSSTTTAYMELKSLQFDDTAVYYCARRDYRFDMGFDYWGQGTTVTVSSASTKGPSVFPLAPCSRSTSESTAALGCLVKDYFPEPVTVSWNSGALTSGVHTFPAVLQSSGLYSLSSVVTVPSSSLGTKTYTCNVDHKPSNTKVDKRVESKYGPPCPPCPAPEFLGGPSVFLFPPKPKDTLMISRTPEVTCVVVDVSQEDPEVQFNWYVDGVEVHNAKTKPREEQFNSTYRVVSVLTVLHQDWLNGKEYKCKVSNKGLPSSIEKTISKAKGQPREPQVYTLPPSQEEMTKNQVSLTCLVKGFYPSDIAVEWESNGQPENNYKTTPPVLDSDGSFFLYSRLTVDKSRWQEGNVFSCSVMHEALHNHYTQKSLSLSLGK
light: B4 light
B10: BCP-74 (AS07014VH11-mutated hIgG1 hinge-Keytruda) (bispecific antibody)
heavy: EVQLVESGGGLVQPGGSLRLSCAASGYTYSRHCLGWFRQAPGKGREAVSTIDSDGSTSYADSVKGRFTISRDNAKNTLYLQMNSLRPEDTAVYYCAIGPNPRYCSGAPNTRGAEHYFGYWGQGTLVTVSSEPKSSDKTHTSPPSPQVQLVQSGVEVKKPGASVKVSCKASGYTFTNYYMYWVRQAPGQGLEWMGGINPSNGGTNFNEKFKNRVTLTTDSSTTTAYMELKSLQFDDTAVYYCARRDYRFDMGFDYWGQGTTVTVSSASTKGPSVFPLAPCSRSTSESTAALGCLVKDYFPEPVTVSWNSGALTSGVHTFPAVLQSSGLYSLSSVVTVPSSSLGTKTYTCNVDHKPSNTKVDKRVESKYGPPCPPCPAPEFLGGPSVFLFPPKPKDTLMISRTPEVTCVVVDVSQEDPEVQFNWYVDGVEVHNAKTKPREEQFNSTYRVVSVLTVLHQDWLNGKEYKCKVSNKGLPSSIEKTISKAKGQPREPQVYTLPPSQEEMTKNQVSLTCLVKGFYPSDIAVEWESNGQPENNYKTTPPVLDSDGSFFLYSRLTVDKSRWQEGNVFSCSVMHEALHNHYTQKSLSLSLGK
light: B4 light
B11: BCP-73 (A34311VH11-mutated hIgG1 hinge-Keytruda) (bispecific antibody)
heavy: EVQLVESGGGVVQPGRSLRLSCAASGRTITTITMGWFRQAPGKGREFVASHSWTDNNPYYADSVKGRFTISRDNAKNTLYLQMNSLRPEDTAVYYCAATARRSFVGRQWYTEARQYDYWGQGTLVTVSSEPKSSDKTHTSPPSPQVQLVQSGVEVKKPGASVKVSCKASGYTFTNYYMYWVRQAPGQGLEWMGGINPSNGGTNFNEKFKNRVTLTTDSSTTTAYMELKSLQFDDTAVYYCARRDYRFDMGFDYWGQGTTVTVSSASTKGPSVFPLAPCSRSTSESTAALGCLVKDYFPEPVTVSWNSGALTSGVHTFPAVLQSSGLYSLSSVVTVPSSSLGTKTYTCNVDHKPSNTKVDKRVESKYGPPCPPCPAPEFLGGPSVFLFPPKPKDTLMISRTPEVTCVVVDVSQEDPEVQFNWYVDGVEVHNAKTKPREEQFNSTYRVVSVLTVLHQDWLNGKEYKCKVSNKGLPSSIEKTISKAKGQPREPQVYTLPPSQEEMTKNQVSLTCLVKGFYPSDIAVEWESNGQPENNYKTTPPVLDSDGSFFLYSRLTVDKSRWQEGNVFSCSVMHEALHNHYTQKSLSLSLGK
light: B4 light
B12: BCP-311K (A34311-9GS-Keytruda) (bispecific antibody, human IgG4 S228P, kappa)
heavy: not shown
light: B4 light
B13: AS07189 HCAb (Fc fusion)
heavy: QVQLVESGGGSVQAGGSLRLSCAASGDSPSVNYMGWFRRAPEKQREQREEVASIYPTGGTFYTDSVKGRFTISRDNAKNTLYLQMTALKPEDTAMYYCAAGKWGTDYWGQGTQVIVSS
notes: not shown: human IgG1 Fc
B14: AS07014 HCAb (Fc fusion)
heavy: QVHLVESGGGSVQAGGSLRLSCAASGYTYSRHCLGWFRQTPGKEREAVATIDSDGSTSYADSVKGRFTISSDNAKNTLYLQMNSLKPEDTAMYYCAIGPNPRYCSGAPNTRGAEHYFGYWAQGTQVTVSS
notes: not shown: human IgG1 Fc
B15: A34311 sdAb (VHH)
VHH: QVKLEESGGGLVLPGESLRLSCEASGRTITTITMGWFRQAPGKERQFVASHSWTDNNPYYADSVKGRFIISRDNAGNRVYLQMHSLEPEDTAVYYCAATARRSFVGRQWYTEARQYDYWGQGTQVTVSS
notes: also called A34311 (WT)

What follows are binders tested against T1, human CTLA-4 expressed on CHO cells (human, UniProt P16410 37-223) (assay: FACS on CHO cells expressing human CTLA-4).
T1 construct: also called CHO cells expressing human CTLA-4; CTLA-4 expressing CHO cells
T1 sequence (P16410 37-223): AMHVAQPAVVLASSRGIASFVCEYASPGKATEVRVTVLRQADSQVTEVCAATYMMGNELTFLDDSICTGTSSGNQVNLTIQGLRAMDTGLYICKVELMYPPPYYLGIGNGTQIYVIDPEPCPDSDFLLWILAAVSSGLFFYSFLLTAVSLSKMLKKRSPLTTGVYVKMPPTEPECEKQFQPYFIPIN
Protocol: (§1) Binding of HCAbs to human CTLA-4 expressed on CHO cells was determined using a fluorescence-activated cell sorting (FACS)-based assay. CHO cells expressing human CTLA-4 were dissociated from adherent culture flasks and mixed with varying concentrations of antibodies (in a 96-well plate). […] The mixture was equilibrated for 30 minutes at room temperature, then washed three times with FACS buffer (PBS containing 1% BSA). Fluorescein isothiocyanate (FITC)-conjugated anti-human κ antibody (Jackson ImmunoResearch) was then added and incubated for 15 minutes at room temperature, serving as a secondary antibody. Cells were washed again with FACS buffer and analyzed by flow cytometry. Data were analyzed with Prism (GraphPad Software, San Diego, Calif.) using non-linear regression, and EC₅₀ values were calculated.
BABP samples were prepared (starting at 1 μM, 3-fold serial dilution with 10 concentrations) as primary antibody for FACS analysis.

For B1, which EC50 is on record?
The EC50 was 20.4 nM.

For B2, which EC50 is on record?
Its EC50 is 26.4 nM.

B3 was tested. Which EC50 did it give?
Its EC50 is 17.7 nM.

With B4 as the binder, how does the EC50 read?
Its EC50 is 16.4 nM.

B5 was tested. Which EC50 did it give?
Its EC50 is 48 nM.

With B6 as the binder, how does the EC50 read?
Its EC50 is 71.7 nM.

Which EC50 does the source give for B7 here?
The EC50 was 26.6 nM.

For B8, which EC50 is on record?
The EC50 was 31.2 nM.

The binders below were run against T2, biotin-labeled hCTLA-4/Fc protein (human, UniProt P16410 37-161, biotin label in the FACS competition assays (sites not given)) (assay: FACS competition, biotin hCTLA-4-Fc on CHO cells expressing human B7-1).
T2 construct: also called CTLA-4 ECD (CTLA-4-Fc); CTLA-4-Fc (GenScript, Z03373-50)

B1 was tested. Which IC50 did it give?
Its IC50 is 17.5 nM.

B2 was tested. Which IC50 did it give?
The IC50 was 17.9 nM.

For B3, which IC50 is on record?
The IC50 was 33.3 nM.

How did the IC50 turn out when B4 was run?
The IC50 was 11.7 nM.

For B5, which IC50 is on record?
The IC50 was 26.3 nM.

With B6 as the binder, how does the IC50 read?
The IC50 was 14.6 nM.

B7 was tested. Which IC50 did it give?
The IC50 was 8.6 nM.

How did the IC50 turn out when B8 was run?
The IC50 was 15.3 nM.

Each binder was assayed against T3, CTLA-4-His protein (Homo sapiens (Human), UniProt P16410 37-161) (assay: SPR, antibody immobilised, CTLA-4-His as analyte).
T3 construct: also called CTLA-4-His fusion protein; not shown: His tag

Does B9 bind?
Result: binds

Does B10 bind?
Result: binds

Does B11 bind?
Result: binds

Each binder was assayed against T4, human PD-1 expressed on CHO cells (human, UniProt Q15116 25-288) (assay: FACS competition, biotin hPD-L1-Fc on CHO cells expressing human PD-1).
T4 construct: whole, on cells; Also used here for PD-1 on primary T cells (MLR) and on reporter Jurkat cells in the functional rows; also called CHO cells expressing human PD-1
Protocol: The mixture was equilibrated for 30 minutes at room temperature, and washed three times with FACS buffer (PBS containing 1% BSA). PE/Cy5 Streptavidin secondary antibody was then added to the mixtures and incubated for 15 minutes at room temperature. Subsequently, the cells were washed with FACS buffer and analyzed by flow cytometry.

With B1 as the binder, how does the IC50 read?
Its IC50 is 4.6 nM.

How did the IC50 turn out when B2 was run?
The IC50 was 2 nM.

Which IC50 does the source give for B3 here?
Its IC50 is 4 nM.

How did the IC50 turn out when B4 was run?
The IC50 was 2.3 nM.

B5 was tested. Which IC50 did it give?
The IC50 was 2 nM.

With B6 as the binder, how does the IC50 read?
The IC50 was 4.3 nM.

How did the IC50 turn out when B7 was run?
Its IC50 is 8.8 nM.

How did the IC50 turn out when B8 was run?
The IC50 was 5.7 nM.

Each binder was assayed against T5, PD-1-His protein (UniProt Q15116 25-167, limits assumed) (assay: SPR, antibody captured by Fc, PD-1-His as analyte).
T5 construct: not shown: His tag
T5 sequence (Q15116 25-167 limits assumed): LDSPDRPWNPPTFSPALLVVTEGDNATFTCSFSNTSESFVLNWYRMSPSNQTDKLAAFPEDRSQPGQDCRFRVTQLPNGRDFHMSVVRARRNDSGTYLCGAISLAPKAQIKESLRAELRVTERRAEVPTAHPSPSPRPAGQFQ

With B1 as the binder, how does the Kd read?
The Kd was 7.3 nM.

B2 was tested. Which Kd did it give?
Its Kd is 8.3 nM.

B3 was tested. Which Kd did it give?
Its Kd is 3.9 nM.

For B4, which Kd is on record?
Its Kd is 5.3 nM.

How did the Kd turn out when B5 was run?
Its Kd is 8.1 nM.

B6 was tested. Which Kd did it give?
The Kd was 7.5 nM.

Which Kd does the source give for B7 here?
Its Kd is 3.9 nM.

Which Kd does the source give for B8 here?
The Kd was 8 nM.

Each binder was assayed against T3, CTLA-4-His protein (assay: SPR, antibody immobilised on CM5, CTLA-4-His as analyte).

Does B12 bind?
Result: binds

The binders below were run against T3, CTLA-4-His protein (assay: SPR, CTLA-4-His immobilised, HCAb as analyte at 5-160 nM).
Protocol: Binding kinetics of anti-CTLA-4 HCAbs were determined using a Surface Plasmon Resonance (SPR) biosensor, Biacore T200 (GE Healthcare). Antigen CTLA-4-His fusion protein was immobilized on the sensor chip. […] The data of dissociation (kd) and association (kₐ) rate constants were obtained using Biacore T200 evaluation software. The apparent equilibrium dissociation constants (KD) were calculated from the ratio of kd/kₐ.

Does B13 bind?
Result: binds

Does B14 bind?
Result: binds

Target: T1, human CTLA-4 expressed on CHO cells
Assay: FACS on CHO cells expressing human CTLA-4
Remark: another data set of the same source
Protocol: as §1

Does B9 bind?
Result: binds

Does B10 bind?
Result: binds

Does B11 bind?
Result: binds

These binders were tested against T3, CTLA-4-His protein (assay: SPR, antibody captured by Fc, CTLA-4-His as analyte).
Protocol: Different concentrations of the BABP samples were prepared starting at 200 nM with 3-fold serial dilution. Each BABP sample was immobilized on the sensor chip through the Fc capture method. Antigen CTLA-4-His was used as the analyte. The dissociation (kd) and association (kₐ) rate constants were obtained using the BIACORE® T200 evaluation software. The apparent equilibrium dissociation constants (KD) were calculated from the ratio of kd over kₐ.

With B1 as the binder, how does the Kd read?
Its Kd is 7.2 nM.

With B2 as the binder, how does the Kd read?
The Kd was 6.1 nM.

Which Kd does the source give for B3 here?
The Kd was 39.3 nM.

For B4, which Kd is on record?
The Kd was 11 nM.

Which Kd does the source give for B5 here?
The Kd was 9.2 nM.

Which Kd does the source give for B6 here?
The Kd was 4.1 nM.

With B7 as the binder, how does the Kd read?
Its Kd is 4.8 nM.

How did the Kd turn out when B8 was run?
The Kd was 4.3 nM.

What follows are binders tested against T4, human PD-1 expressed on CHO cells (assay: FACS on CHO cells expressing human PD-1).
Protocol: (§2) CHO cells expressing human PD-1 were dissociated from adherent culture flasks and mixed with varying concentrations of antibodies (both in a 96-well plate). […] Human IgG was used as a negative binding control. The mixture was equilibrated for 30 minutes at room temperature, washed three times with FACS buffer (PBS containing 1% BSA). FITC-conjugated anti-human kappa antibody (Jackson ImmunoResearch) used as secondary antibody was then added and incubated for 15 minutes at room temperature. Cells were washed again with FACS buffer and analyzed by flow cytometry. Data were analyzed with Prism (GraphPad Software, San Diego, Calif.) using non-linear regression, and EC₅₀ values were calculated.

Does B9 bind?
Result: binds

Does B10 bind?
Result: binds

Does B11 bind?
Result: binds

The binders below were run against T2, biotin-labeled hCTLA-4/Fc protein (assay: FACS competition, biotin hCTLA-4/Fc on CHO cells expressing human B7-1).
Protocol: Blockade of ligand binding was studied using flow cytometry. […] The mixture was equilibrated for 30 minutes at room temperature, washed three times with FACS buffer (PBS containing 1% BSA). PE/Cy5 Streptavidin secondary antibody was then added and incubated for 15 minutes at room temperature. Cells were washed again with FACS buffer and analyzed by flow cytometry. Data were analyzed with Prism (GraphPad Software, San Diego, Calif.) using non-linear regression, and IC₅₀ values were calculated.

B15 was tested. Which EC50 did it give?
Its EC50 is ~14.5 nM.

Target: T4, human PD-1 expressed on CHO cells
Assay: FACS on CHO cells expressing human PD-1
Remark: another data set of the same source
Protocol: as §2
BABP samples were prepared (starting at 1 μM, 3-fold serial dilution with 10 concentrations) as primary antibodies for FACS analysis.

With B1 as the binder, how does the EC50 read?
The EC50 was 3 nM.

For B2, which EC50 is on record?
Its EC50 is 1.8 nM.

How did the EC50 turn out when B3 was run?
The EC50 was 2.7 nM.

With B4 as the binder, how does the EC50 read?
Its EC50 is 5.2 nM.

For B5, which EC50 is on record?
Its EC50 is 1.5 nM.

How did the EC50 turn out when B6 was run?
The EC50 was 8.1 nM.

How did the EC50 turn out when B7 was run?
Its EC50 is 12.2 nM.

With B8 as the binder, how does the EC50 read?
The EC50 was 3.4 nM.
